Assays:
X-ray diffraction = details: glycan changed form; control: HEK293T-expressed protein
[1] = X-ray diffraction of CSF-1 complex crystals; details: glycan changed form; control: HEK293T-expressed receptor
initial expression tests = details: glycan lost; control: other CSF-1RD1–D3 constructs
[2] = achievable concentration for crystal screens; details: glycan lost; control: undigested HEK293S MGAT1−/− material
[3] = achievable concentration of CSF-1 complex; details: glycan changed form; control: wild-type (HEK293T) material
[4] = molecular target: the molecule itself; test: crystal structure; DSCAM_(Ig7–Ig9) from HEK293 GlycoDelete cells; space group C2, one molecule in the asymmetric unit, oligomer by crystallographic symmetry; 0.2 M calcium acetate, 10% PEG 8000, 0.1 M HEPES pH 7.5, 3% glycerol; 1.85 Å
[5] = molecular target: the molecule itself; test: SEC; size-exclusion chromatography of IMAC-purified murine IL-12B from GD cells

Down syndrome cell-adhesion molecule (DSCAMIg7–Ig9): GlycoDelete expression
other: crystal diffraction quality, other: diffraction limit (X-ray diffraction): increases, 1.85 vs ∼8

colony-stimulating factor 1 receptor (CSF-1RD1–D3): HEK293S MGAT1−/− expression
other: crystal diffraction quality, other: diffraction limit [1]: increases, 4.5 vs did not diffract

colony-stimulating factor 1 receptor (CSF-1RD1–D3): N240Q
expression_or_secretion (initial expression tests): no change

colony-stimulating factor 1 receptor (CSF-1RD1–D3): N275Q
expression_or_secretion (initial expression tests): no change

colony-stimulating factor 1 receptor (CSF-1RD1–D3): N153Q
expression_or_secretion (initial expression tests): no change

colony-stimulating factor 1 receptor (CSF-1RD1–D3): EndoH digestion
other: solubility [2]: decreases

colony-stimulating factor 1 receptor (CSF-1RD1–D3): N73Q
expression_or_secretion (initial expression tests): abolishes

colony-stimulating factor 1 receptor (CSF-1RD1–D3): GlycoDelete expression
other: solubility [3]: no change

B1: human Down syndrome cell-adhesion molecule fragment DSCAM_(Ig7–Ig9) (domain or fragment)
chain: TVPPFIQPFEFPRFSIGQRVFIPCVVVSGDLPITITWQKDGRPIPGSLGVTIDNIDFTSSLRISNLSLMHNGNYTCIARNEAAAVEHQSQLIVRVPPKFVVQPRDQDGIYGKAVILNCSAEGYPVPTIVWKFSKGAGVPQFQPIALNGRIQVLSNGSLLIKHVVEEDSGYYLCKVSNDVGADVSKSMYLTVKIPAMITSYPNTTLATQGQKKEMSCTAHGEKPIIVRWEKEDRIINPEMARYLVSTKEVGEEVISTLQILPTVREDSGFFSCHAINSYGEDRGIIQLTVQEE
modifications: GlycoDelete N-glycan stubs at Asn666, Asn710, Asn748 and Asn795 (full Neu5AcGalGlcNAc at Asn795)
notes: one-residue cloning scar (Thr594) at the N-terminus; Down syndrome cell-adhesion molecule (DSCAM), human, UniProt O60469, residues 595–884 (Val595–Glu884), immunoglobulin domains Ig7, Ig8 and Ig9; one-residue cloning scar (Glu885) before the C-terminal 6×His tag; Expressed from pXLG behind a 34-residue signal peptide of pregnancy-specific glycoprotein 1 (UniProt P11464); The signal peptide is not …
binding result [4]: binds

B2: murine IL-12B (natural protein, UniProt P43432 23-335, looked up)
chain: MWELEKDVYVVEVDWTPDAPGETVNLTCDTPEEDDITWTSDQRHGVIGSGKTLTITVKEFLDAGQYTCHKGGETLSHSHLLLHKKENGIWSTEILKNFKNKTFLKCEAPNYSGRFTCSWLVQRNMDLKFNIKSSSSSPDSRAVTCGMASLSAEKVTLDQRDYEKYSVSCQEDVTCPTAEETLPIELALEARQQNKYENYSTSFFIRDIIKPDPPKNLQMKPLKNSQVEVSWEYPDSWSTPHSYFSLKFFVRIQRKKEKMKETEEGCNQKGAFLVEKTSTEVQCKGGNVCVQAQDRYYNSSCSKWACVPCRVRS
modifications: immature N-linked glycan on Asn220 (modelled as Man4GlcNAc2)
notes: signal peptide in the construct; The dimeric SEC fractions (disulfide-linked homodimer through Cys197) were pooled, polished on Mono Q and crystallised; also called IL-12p40 (monomer); IL-12p80 (homodimer); source: HEK293 GlycoDelete cells, transfected, secreted; purified (IMAC, SEC, Mono Q anion exchange)
stoichiometry N [5]: 2
